B1: EEB1: esterase from Saccharomyces cerevisiae, expressed in BL21 E. coli, used as cell lysate (protein, UniProt Q02891 1-456, looked up)
Medium-chain fatty acid ethyl …: MFRSGYYPTVTPSHWGYNGTVKHVLGEKGTKSLAFRDSKRQIPLHEFVTKHVPTLKDGANFRLNSLLFTGYLQTLYLSAGDFSKKFQVFYGREIIKFSDGGVCTADWVMPEWEQTYSLNAEKASFNEKQFSNDEKATHPKGWPRLHPRTRYLSSEELEKCHSKGYSYPLVVVLHGLAGGSHEPLIRALSEDLSKVGDGKFQVVVLNARGCSRSKVTTRRIFTALHTGDVREFLNHQKALFPQRKIYAVGTSFGAAMLTNYLGEEGDNCPLNAAVALSNPWDFVHTWDKLAHDWWSNHIFSRTLTQFLTRTVKVNMNELQVPENFEVSHKPTVEKPVFYTYTRENLEKAEKFTDILEFDNLFTAPSMGLPDGLTYYRKASSINRLPNIKIPTLIINATDDPVTGENVIPYKQARENPCVLLCETDLGGHLAYLDNESNSWLTKQAAEFLGSFDELVL
modifications: cell lysate
B2: EstA: esterase from Pseudomonas aeruginosa, expressed in BL21 E. coli (protein, UniProt O33407 25-646, looked up)
Esterase EstA: APSPYSTLVVFGDSLSDAGQFPDPAGPAGSTSRFTNRVGPTYQNGSGEIFGPTAPMLLGNQLGIAPGDLAASTSPVNAQQGIADGNNWAVGGYRTDQIYDSITAANGSLIERDNTLLRSRDGYLVDRARQGLGADPNALYYITGGGNDFLQGRILNDVQAQQAAGRLVDSVQALQQAGARYIVVWLLPDLGLTPATFGGPLQPFASQLSGTFNAELTAQLSQAGANVIPLNIPLLLKEGMANPASFGLAADQNLIGTCFSGNGCTMNPTYGINGSTPDPSKLLFNDSVHPTITGQRLIADYTYSLLSAPWELTLLPEMAHGTLRAYQDELRSQWQADWENWQNVGQWRGFVGGGGQRLDFDSQDSAASGDGNGYNLTLGGSYRIDEAWRAGVAAGFYRQKLEAGAKDSDYRMNSYMASAFVQYQENRWWADAALTGGYLDYDDLKRKFALGGGERSEKGDTNGHLWAFSARLGYDIAQQADSPWHLSPFVSADYARVEVDGYSEKGASATALDYDDQKRSSKRLGAGLQGKYAFGSDTQLFAEYAHEREYEDDTQDLTMSLNSLPGNRFTLEGYTPQDHLNRVSLGFSQKLAPELSLRGGYNWRKGEDDTQQSVSLALSLDF

Key:
[1] = 25° C.; cited from earlier work
[2] = Temperature and pH optimisation, pNPA reaction assay (Example Set 1); type: biochemical; details: tested 22, 30, 37 °C; pH 6, 7, 8; 100 μM pNPA
Description: (§1) Esterase activity is used to indirectly measure the esterification activity required for enzymes to produce ethyl lactate. Cleavage of the ester bond in 4-nitrophenyl acetate (pNPA) to form 4-nitrophenol (pNP) and acetic acid is used to determine the esterase activity of the enzymes. The Km and Vmax values, found by applying the Michaelis-Menten kinetics model to experimental data found at optimal pH and temperature conditions, are used to evaluate enzymatic activity. As disclosed herein, hydrolysis of the ester bond in pNPA was used to estimate the esterification activity of the enzymes.
(§2) This work involved two separate sets of examples (Generally, Example Set 1 and Example Set 2). Example Set 1 set was performed to determine the optimum temperature and pH conditions for each enzyme to catalyze the pNPA reaction. Three temperatures (22, 30, 37° C.) and three pH conditions (pH of 6, 7, 8) were tested. The temperature and pH condition which led to the highest product concentration were selected as the conditions to be used for each enzyme in Example set 2. The second set of examples was a kinetics reaction assay where reaction progress was measured at five time points (0, 15, 30, 60, 120) for six different initial pNPA concentrations (0, 25, 50, 100, 150, 200 μM).
Example Set 1 had the objective of determining the optimum temperature and pH conditions at which to run experiments for enzymatic activity characterization. As such, temperature and pH were the only conditions that varied in this experiment. Both were tested at three different levels which were similar to normal cell conditions: 22, 30 and 37° C. for temperature and 6, 7, and 8 for pH.
These were tested for all 8 enzymes from Table 1, as well as the wild type control, and a blank containing no enzyme.
The phosphate buffer was of 6, 7, or 8 pH, respectively. Lysate for each enzyme was diluted down to 250 μg/ml to facilitate ease of addition—each blank received an extra 100 μl of phosphate buffer instead of diluted cell lysate. The enzymatic component was added last and was the catalyst to initialize the reaction. The reactions were performed in three deep 96-well plates each of which was incubated at one of the temperature conditions. Agitation was provided by incubators shaking at 230 RPM.
Readings were made at 30 and 60 minutes following the initialization of the reaction. To make a reading, 200 μl of the reaction volume were transferred from the deep well plates to standard 96-well plates. The pNP product of the pNPA reaction assays is detected through Absorbance at a wavelength of 410 nm.
A curve was generated to convert from absorbances to pNP concentration. The relationship between a colored chemical and its absorbance is usually linear and can be used to convert absorbance values into chemical concentrations. To know how much pNP was being detected through absorbance, it was necessary to create a standard curve to obtain values for the relationship between the concentration of pNP and the absorbance of pNP. Creating a standard curve involved creating samples of different pNP concentrations. For the pNP to give color, it needed to be ionized. Accordingly, pNP was ionized in the presence of NaOH at a concentration of 0.4 g/ml. A standard curve was created by taking the absorbance of pNP at various known concentrations. […] As also seen in FIG. 5, the data (solid line) closely follows a linear pattern over the concentration range being tested for pNP. The R2 value for the linear regression is 0.9939. The formula for converting from absorbance to pNP, derived from that linear regression, is seen in Equation A1: [pNP]=(Abs+0.0244)/25.929 [A1]

[3] = Kinetics reaction assay, pNPA to pNP, Michaelis-Menten model (Example Set 2); type: biochemical; details: for specificity constant, comparison in words: FIG. 15; for vmax × 10^−6 / Km: pNPA to pNP, cell lysate 50 μg/ml protein, optimal temperature and pH of each enzyme; for Km: read-out: km × 10^−6; for kcat: turnover number, all protein detected by Bradford's reagent assumed to be the enzyme
Description: as §1
Enzymatic activity can be characterized by calculating kinetic parameters for the enzymes considered. To calculate kinetic parameters for an enzyme, a kinetic model must be applied to the data.
In this form, only the initial reaction rate and substrate concentrations are considered—with the initial reaction rate being the average change in product concentration between the reaction initiation and the first subsequent reading. Plotting the inverse of v0 against the inverse of [S0] results in what is known as a Lineweaver-Burk plot. An example of a Lineweaver-Burk plot is seen in FIG. 2.
A linear regression of the data in such plots follows the linearized Michaelis-Menten equations. The y-intercept of the Lineweaver-Burk plot is the inverse of vmax; the slope multiplied by vmax gives the value of the km parameter. This is summarized in Equation 4: […]
Therefore, the kinetic parameters of an enzyme can be determined through the parameters obtained through a linear regression applied to linearized kinetics data. Once vmax and km are determined, they can be used to calculate the turnover number and the specificity constant. This approach utilizes experiments being performed with varying initial substrate concentrations while holding all other parameters constant.
as §2
In Example Set 2, a kinetics reaction assay was performed on the enzymes from Table 1. […] That enzymatic activity was tested for at the ideal temperature and pH conditions determined in the optimization experiment.
One deviation from the common protocols for Example Set 2 was that cell pellets had been stored in −80° C. for seven days instead of the usual 24 hours. In addition, the lysing process included more vigorous agitation.
To determine the kinetic activity for each enzyme, substrate concentration was varied and measured at different time points. In addition to testing each enzyme, a wild type E. coli PET control (see Table 1) was run at its optimal conditions. A blank containing pNPA but no enzyme was also included for each of the temperature pH combinations to be tested.
Initial pNPA concentrations were tested at 0, 25, 50, 100, 150, 200 μM. Measurements were made at 0, 15, 30, 60, and 120 minutes.
The phosphate buffer was of pH 6, 7, or 8 as determined to be best from Example Set 1. Stock solutions of pNPA were made in different concentrations such that adding 20 μl to the reaction would result in the corresponding final pNPA concentration (either 25, 50, 100, 150, or 200 μM). Cell lysate was diluted to concentrations of 250 μg/m to allow for uniformity in the volume of lysate added to each reaction. Instead of diluted lysate, each blank received an extra 200 μl of phosphate buffer. […]

E. coli BL21-DE3 = experiment: In vivo production of esters by engineered E. coli, culture supernatants by GC-MS (Example Set 3); type: cell-based; details: culture supernatant, M9 medium, 1 mM IPTG
Description: E. coli cells were engineered through two step cloning. First, the cells (E. coli BL21-DE3, a commercially available genetic transformation-ready strain) were cloned with esterase or transferase enzymes using pET15b plasmid at NdeI/BamHI locus in the vector.
Specifically, plasmids were constructed (PT7::RBS:Gene*::PT7::RBS:pct::RBS:ldh in pET15b) and cloned in E. coli BL21-DE3 with ethanol producing plasmid (pACYDuet-Zm-pdc-Zm-adh). Cells were cultivated with high-cell density in M9 medium and induced with 1 mM IPTG.
Culture supernatants were analyzed through HPLC (for ethanol and lactate) and GC-MS (for esters). Esterase-A yielded highest ethyl lactate (3.5±1.5 mg/L) and ethyl acetate (16±8 mg/L).
FIGS. 18 and 19 show a GC-MS analysis of culture supernatants (collected after 22 h and 46 h of incubation) of mutants extracted with chloroform.

Molecule | vapor pressure [1] [mm Hg] | Temperature giving 2nd highest conversion of pNPA to pNP [2] [°C] | Temperature giving highest conversion of pNPA to pNP [2] [°C] | pH giving 2nd highest conversion of pNPA to pNP [2] | pH giving highest conversion of pNPA to pNP [2] | specificity constant, comparison in words [3] | vmax × 10^−6 [3] | Km [3] [µM] | kcat [3] [s⁻¹] | ethyl acetate yielded (E. coli BL21-DE3) [mg/L] | ethyl lactate yielded (E. coli BL21-DE3) [mg/L]
CCOC(=O)C(C)O (stereo not drawn) [ethyl lactate] | 3.75 |  |  |  |  |  |  |  |  |  | 
Cc1ccccc1 [toluene] | 28.4 |  |  |  |  |  |  |  |  |  | 
xylene | 8.84 |  |  |  |  |  |  |  |  |  | 
B1 |  | 30 | 22 | 8 | 7 | top performing enzymes | 1.34 ± 0.26 × 10^−6 molL^−1s^−1 | 3.9 ± 0.74 | 1.39 ± 0.26 |  | 
B2 |  | 37 | 22 | 8 | 7 | top performing enzymes | 1.09 ± 0.05 × 10^−6 molL^−1s^−1 | 4.89 ± 1.16 | 1.52 ± 0.36 | 16 ± 8 | 3.5 ± 1.5
